In article doi:10.1101/2021.03.17.435802 (bioRxiv, 2021):

Biological target: SARS-CoV-2 S1 WT (in-house) (SARS-CoV-2, UniProt P0DTC2)
Assay: SPR

| Binder | binding result |
| --- | --- |
| REGN10933 (antibody, V domains shown) VH: QVQLVESGGGLVKPGGSLRLSCAASGFTFSDYYMSWIRQAPGKGLEWVSYITYSGSTIYYADSVKGRFTISRDNAKSSLYLQMNSLRAEDTAVYYCARDRGTTMVPFDYWGQGTLVTVSS VL: DIQMTQSPSSLSASVGDRVTITCQASQDITNYLNWYQQKPGKAPKLLIYAASNLETGVPSRFSGSGSGTDFTFTISGLQPEDIATYYCQQYDNLPLTFGGGTKVEIK | binds |
| LY-CoV555 (antibody, V domains shown) VH: QVQLVQSGAEVKKPGSSVKVSCKASGGTFSNYAISWVRQAPGQGLEWMGRIIPILGIANYAQKFQGRVTITADKSTSTAYMELSSLRSEDTAVYYCARGYYEARHYYYYYAMDVWGQGTAVTVSS VL: not shown | binds |
